From patent US20210380703A1 (RIGEL PHARMACEUTICALS, published 2021)

B1: 367_D02 (antibody, V domains shown)
VH: EVQLLESGGGLVQPGGSLRLSCAASGFTFDDYSMNWVRQAPGKGLEWVSNINYNGGYTSYADSVKGRFTISRDNSKNTLYLQMNSLRAEDTAVYYCARSATWHDTHLDYWGQGTLVTVSS
VL: DIQMTQSPSSLSASVGDRVTITCRASQSIVTYVNWYQQKPGKAPKLLIYAATSRASGVPSRFSGSGSGTDFTLTISSLQPEDFATYYCQQSYENPLTFGGGTKVEIK
notes: VH and VL only
B2: 367_F12 (antibody, V domains shown)
VH: EVQLLESGGGLVQPGGSLRLSCAASGFTFDDYSMNWVRQAPGKGLEWVSNINYNSGYKGYADSVKGRFTISRDNSKNTLYLQMNSLRAEDTAVYYCARSATWHDTHLDYWGQGTLVTVSS
VL: not shown
notes: VH and VL only
B3: 367_G08 (antibody, V domains shown)
VH: EVQLLESGGGLVQPGGSLRLSCAASGFTFDSYGMNWVRQAPGKGLEWVSNINYNGGYKGYADSVKGRFTISRDNSKNTLYLQMNSLRAEDTAVYYCARSATWHDTHLDYWGQGTLVTVSS
VL: DIQMTQSPSSLSASVGDRVTITCRASQSILSYLNWYQQKPGKAPKLLIYAATSRASGVPSRFSGSGSGTDFTLTISSLQPEDFATYYCQQSYENPLTFGGGTKVEIK
notes: VH and VL only
B4: 367_H04 (antibody, V domains shown)
VH: EVQLLESGGGLVQPGGSLRLSCAASGFTFSSYSMNWVRQAPGKGLEWVSSINYNGGYTSYADSVKGRFTISRDNSKNTLYLQMNSLRAEDTAVYYCARSATWHDTHLDYWGQGTLVTVSS
VL: DIQMTQSPSSLSASVGDRVTITCRASQSILTYVNWYQQKPGKAPKLLIYAATSRHSGVPSRFSGSGSGTDFTLTISSLQPEDFATYYCQQSDNNPLTFGGGTKVEIK
notes: VH and VL only
B5: 368_B05 (antibody, V domains shown)
VH: EVQLLESGGGLVQPGGSLRLSCAASGFTFDSYSMNWVRQAPGKGLEWVSSINYNSGYTGYADSVKGRFTISRDNSKNTLYLQMNSLRAEDTAVYYCARSATWHDTHLDYWGQGTLVTVSS
VL: not shown
notes: VH and VL only
B6: 368_G07 (antibody, V domains shown)
VH: EVQLLESGGGLVQPGGSLRLSCAASGFTFSSYSMHWVRQAPGKGLEWVSSINYNGGYTSYADSVKGRFTISRDNSKNTLYLQMNSLRAEDTAVYYCARSATWHDTHLDYWGQGTLVTVSS
VL: DIQMTQSPSSLSASVGDRVTITCRASQSIVSYVNWYQQKPGKAPKLVIYAATSRASGVPSRFSGSGSGTDFTLTISSLQPEDFATYYCQQSYDTPLTFGGGTKVEIK
notes: VH and VL only
B7: 368_G08 (antibody, V domains shown)
VH: EVQLLESGGGLVQPGGSLRLSCAASGFTFDDYGMNWVRQAPGKGLEWVSSINYNSGYKSYADSVKGRFTISRDNSKNTLYLQMNSLRAEDTAVYYCARSATWHDTHLDYWGQGTLVTVSS
VL: DIQMTQSPSSLSASVGDRVTITCRASQSIVSYVNWYQQKPGKAPKLLIYAATSRHSGVPSRFSGSGSGTDFTLTISSLQPEDFATYYCQQSYNNPLTFGGGTKVEIK
notes: VH and VL only
B8: 369_A01 (antibody, V domains shown)
VH: EVQLLESGGGLVQPGGSLRLSCAASGFTFDSYSMNWVRQAPGKGLEWVSGINYNSGYKGYADSVKGRFTISRDNSKNTLYLQMNSLRAEDTAVYYCARSATWHDTHLDYWGQGTLVTVSS
VL: DIQMTQSPSSLSASVGDRVTITCRASQSILTYVNWYQQKPGKAPKLVIYAATSLASGVPSRFSGSGSGTDFTLTISSLQPEDFATYYCQQSYELPLTFGGGTKVEIK
notes: VH and VL only
B9: 369_A06 (antibody, V domains shown)
VH: EVQLLESGGGLVQPGGSLRLSCAASGFTFSDYGMNWVRQAPGKGLEWVSNINYNGGYTGYADSVKGRFTISRDNSKNTLYLQMNSLRAEDTAVYYCARSATWHDTHLDYWGQGTLVTVSS
VL: DIQMTQSPSSLSASVGDRVTITCRASQSILSYVNWYQQKPGKAPKLLIYAATSLASGVPSRFSGSGSGTDFTLTISSLQPEDFATYYCQQSYDLPLTFGGGTKVEIK
notes: VH and VL only
B10: 369_C08 (antibody, V domains shown)
VH: EVQLLESGGGLVQPGGSLRLSCAASGFTFSDYGMNWVRQAPGKGLEWVSNINYNGGYTGYADSVKGRFTISRDNSKNTLYLQMNSLRAEDTAVYYCARSATWHDTHLDYWGQGTLVTVSS
VL: DIQMTQSPSSLSASVGDRVTITCRASQSILTYLNWYQQKPGKAPKLVIYAATSLASGVPSRFSGSGSGTDFTLTISSLQPEDFATYYCQQSYENPLTFGGGTKVEIK
notes: VH and VL only
B11: 369_D06 (antibody, V domains shown)
VH: EVQLLESGGGLVQPGGSLRLSCAASGFTFDSYSMNWVRQAPGKGLEWVSGINYNGGYTGYADSVKGRFTISRDNSKNTLYLQMNSLRAEDTAVYYCARSATWHDTHLDYWGQGTLVTVSS
VL: DIQMTQSPSSLSASVGDRVTITCRASQSILTYLNWYQQKPGKAPKLLIYAATSRASGVPSRFSGSGSGTDFTLTISSLQPEDFATYYCQQSYETPLTFGGGTKVEIK
notes: VH and VL only
B12: 369_E04 (antibody, V domains shown)
VH: EVQLLESGGGLVQPGGSLRLSCAASGFTFSDYSMNWVRQAPGKGLEWVSGINYNSGYKSYADSVKGRFTISRDNSKNTLYLQMNSLRAEDTAVYYCARSATWHDTHLDYWGQGTLVTVSS
VL: DIQMTQSPSSLSASVGDRVTITCRASQSILSYVNWYQQKPGKAPKLVIYAATSRASGVPSRFSGSGSGTDFTLTISSLQPEDFATYYCQQSYSLPLTFGGGTKVEIK
notes: VH and VL only
B13: 369_E09 (antibody, V domains shown)
VH: EVQLLESGGGLVQPGGSLRLSCAASGFTFDSYSMNWVRQAPGKGLEWVSNINYNSGYKGYADSVKGRFTISRDNSKNTLYLQMNSLRAEDTAVYYCARSATWHDTHLDYWGQGTLVTVSS
VL: DIQMTQSPSSLSASVGDRVTITCRASQSILSYLNWYQQKPGKAPKLVIYAATSRASGVPSRFSGSGSGTDFTLTISSLQPEDFATYYCQQSYDLPLTFGGGTKVEIK
notes: VH and VL only
B14: 369_F04 (antibody, V domains shown)
VH: EVQLLESGGGLVQPGGSLRLSCAASGFTFSSYGMNWVRQAPGKGLEWVSGINYNGGYTSYADSVKGRFTISRDNSKNTLYLQMNSLRAEDTAVYYCARSATWHDTHLDYWGQGTLVTVSS
VL: DIQMTQSPSSLSASVGDRVTITCRASQSIISYVNWYQQKPGKAPKLLIYAATSRHSGVPSRFSGSGSGTDFTLTISSLQPEDFATYYCQQSYDNPLTFGGGTKVEIK
notes: VH and VL only

Experiments:
human ACVR2A = biological target: T1, human ACVR2A (human, UniProt P27037 20-135, limits assumed); assay: ELISA
T1 construct: also called activin receptor, type II A
T1 sequence (P27037 20-135 limits assumed): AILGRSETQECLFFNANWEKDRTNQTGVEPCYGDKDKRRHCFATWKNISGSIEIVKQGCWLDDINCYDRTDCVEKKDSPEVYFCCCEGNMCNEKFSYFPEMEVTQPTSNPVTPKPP
Outline: (§1)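 Binding signal was read by ELISA after ACVR2A-specific monoclonal antibodies were tested against human ACVR2A and mouse ACVR2A, with human Fc as the negative control.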

mouse ACVR2A = mouse ACVR2A (mouse, UniProt P27038 20-135, limits assumed); assay: ELISA
Chain of mouse ACVR2A (P27038 20-135 limits assumed): as the sequence (P27037 20-135 limits assumed) above, with K20R, V73I counted along it
Outline: as §1

[1] = biological target: T2, biotinylated goat anti-human kappa light chain; assay: ELISA, positive control
T2 construct: Positive control of the ELISA
Outline: as §1
Note: test concentration or dose not given here.

Binder	optical density (human ACVR2A) [OD]	optical density (mouse ACVR2A) [OD]	optical density [1] [OD]
B1	2.46	2.46	3.46
B2	2.38	2.29	3.6
B3	2.69	2.78	3.32
B4	1.62	1.85	3.4
B5	1.73	1.75	3.26
B6	1.79	2.05	3.16
B7	1.6	1.75	3.29
B8	3.6	3.66	3.55
B9	2.89	3.01	3.32
B10	2.32	2.33	2.8
B11	3.44	3.35	3.11
B12	2.88	3.3	3.52
B13	3.63	3.77	3.48
B14	1.95	2.17	3.46
